Like-named read-outs stand apart in the source and are kept apart here.
Key:
[1] = target: BiP-His6 (WT-BiP, aa 19-637) (human) (UniProt P11021); experiment: BLI
[2] = target: BiP-His6 (WT-BiP, aa 19-637) (human) (UniProt P11021); experiment: BLI; remark: listed apart in the source

Sequence of BiP-His6 (WT-BiP, aa 19-637) (human) (P11021 19-637): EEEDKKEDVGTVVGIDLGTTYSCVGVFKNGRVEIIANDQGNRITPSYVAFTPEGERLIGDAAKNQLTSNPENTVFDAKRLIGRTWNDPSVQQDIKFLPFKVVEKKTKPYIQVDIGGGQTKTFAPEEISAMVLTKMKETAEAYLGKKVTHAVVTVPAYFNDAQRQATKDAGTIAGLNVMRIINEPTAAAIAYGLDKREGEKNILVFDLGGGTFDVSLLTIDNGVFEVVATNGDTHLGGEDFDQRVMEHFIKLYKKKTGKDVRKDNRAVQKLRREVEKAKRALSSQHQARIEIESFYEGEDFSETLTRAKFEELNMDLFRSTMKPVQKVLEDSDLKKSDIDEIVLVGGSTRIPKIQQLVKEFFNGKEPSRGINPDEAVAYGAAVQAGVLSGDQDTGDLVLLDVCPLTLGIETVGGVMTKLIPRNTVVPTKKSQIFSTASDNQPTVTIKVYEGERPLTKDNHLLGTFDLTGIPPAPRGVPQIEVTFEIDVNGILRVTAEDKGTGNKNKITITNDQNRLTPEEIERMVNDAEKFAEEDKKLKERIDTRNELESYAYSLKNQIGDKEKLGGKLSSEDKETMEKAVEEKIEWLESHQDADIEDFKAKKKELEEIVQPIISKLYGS

E234G-HYPE (aa 102-458) (from UniProt Q9BVA6) (enzyme)
Kd [1]: 10.2 µM
Kd [2]: 18 µM

— publication doi:10.1101/494930
